Measured values from the supplement of paper PMC10724198.
± gives the standard deviation of the averaged measurements.
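Note: PSI is a weighted mean of sequencing reads over stability bins, variants kept only with over 10 reads, mCherry proximal and sfGFP distal, peptide attached via GGGS linker.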

What follows are sequences tested on Saccharomyces cerevisiae (assay: protein stability index of tFT-peptide fusion (C-terminal peptide) (PSI (0-1 scale)); higher = more stable (slower turnover)). Details: genetic background: wild type; temperature: 30 C.
Procedure: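 Multiplexed protein stability (MPS) profiling in S. cerevisiae. Random 12-aa peptides (tFT-X12 library) are fused to the C-terminus of a sfGFP-mCherry tandem fluorescent timer, after mCherry and a GGGS linker. Cells are FACS-sorted into 8 mCherry/sfGFP bins and deep-sequenced. The protein stability index (PSI) is the read-weighted bin average, scaled from 0 (unstable) to 1 (stable). Only peptides with >10 reads are reported; cells were grown at 30 °C in SC-His with glucose.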
AAAWWGPRNRGL gave a protein stability index of 0.6749 ± 0.0056.
AAGLNSWLRERW gave a protein stability index of 0.805 ± 0.032.
Sequence AAIQNRPIQSNP has a protein stability index of 0.672 ± 0.027.
For AALLQAGMPRTR, the protein stability index was 0.692 ± 0.013.
In the case of AAPPHLTSHPPL, the protein stability index is reported as 0.811 ± 0.19.
In the case of AARRVARTTSFC, the protein stability index is reported as 0.6728 ± 0.0019.
With AARSCRCSSLIG the protein stability index was 0.774 ± 0.0035.
With AAVRCVAEGGAP the protein stability index was 0.637 ± 0.036.
ACDVPSERAVSG gave a protein stability index of 0.628 ± 0.024.
ACFFNCFISLPF showed a protein stability index of 0.584 ± 0.048.
Work on ACGDRGGLCSEG yielded a protein stability index of 0.616 ± 0.066.
ADCLSCRVLIVM gave a protein stability index of 0.484 ± 0.075.
ADGLSRDKALIV showed a protein stability index of 0.598 ± 0.0074.
For ADLAFAGGPYYG, the protein stability index was 0.69 ± 0.067.
With ADMTRSRYMGRS the protein stability index was 0.692 ± 0.033.
ADQAPVLTVWLP gave a protein stability index of 0.669 ± 0.023.
AELALGIESYLP gave a protein stability index of 0.683 ± 0.083.
For AEMGQDGADAGQ, the protein stability index was 0.676 ± 0.01.
Sequence AEPSERSRNSPP has a protein stability index of 0.68 ± 0.019.
In the case of AEVRRQEGTVGV, the protein stability index is reported as 0.707 ± 0.036.
With AEYSTAYRLGIC the protein stability index was 0.644 ± 0.1.
AFCLLSSLASGF was tested, and the protein stability index was 0.759 ± 0.067.
In the case of AFHTLSGFRRVP, the protein stability index is reported as 0.673 ± 0.019.
Sequence AFLMPFPSRLCV has a protein stability index of 0.5806 ± 0.0052.
For AFPGCRPFRPLH, the protein stability index was 0.709 ± 0.056.
AFPHDYCRFFLP gave a protein stability index of 0.612 ± 0.048.
For AFPHRLTRGYDQ, the protein stability index was 0.666 ± 0.038.
Sequence AFPSISNEVVSV has a protein stability index of 0.707 ± 0.017.
AFRCGGVPGDFA gave a protein stability index of 0.664 ± 0.022.
AFSASLAGSGRS showed a protein stability index of 0.736 ± 0.046.
For AFSGMMSVFREW, the protein stability index was 0.695 ± 0.049.
AGAFVGAPVGGE showed a protein stability index of 0.713 ± 0.026.
With AGALFRLPSVFD the protein stability index was 0.727 ± 0.076.
In the case of AGASCGGRPDTA, the protein stability index is reported as 0.607 ± 0.02.
AGCGGIWGLWVL was tested, and the protein stability index was 0.723 ± 0.05.
For AGCGGRCEAGDR, the protein stability index was 0.67 ± 0.011.
Work on AGFGVGALSRSG yielded a protein stability index of 0.673 ± 0.041.
For AGGAAIVERAMK, the protein stability index was 0.6857 ± 0.003.
AGGDDGAPGTQS gave a protein stability index of 0.644 ± 0.015.
AGGGPDGFIRPM showed a protein stability index of 0.701 ± 0.014.
AGGKGVGRGWGL showed a protein stability index of 0.698 ± 0.051.
In the case of AGGLGSGGSRER, the protein stability index is reported as 0.6612 ± 0.0024.
AGGSVFSVLVDE showed a protein stability index of 0.665 ± 0.0081.
Sequence AGGWLRGWLGVG has a protein stability index of 0.673 ± 0.047.
AGGWRGAEGCGG showed a protein stability index of 0.782 ± 0.083.
AGQNVWGAGTNE showed a protein stability index of 0.712 ± 0.0079.
Sequence AGRGGRAGGGWR has a protein stability index of 0.668 ± 0.015.
With AGRSCGRHEPPK the protein stability index was 0.579 ± 0.098.
Sequence AGRVCTRGVNEI has a protein stability index of 0.786 ± 0.1.
Work on AGSAAGGAWSGG yielded a protein stability index of 0.695 ± 0.019.
With AGSLFEVECNGS the protein stability index was 0.746 ± 0.038.
In the case of AGSSIPLPASRA, the protein stability index is reported as 0.705 ± 0.026.
In the case of AGSVIPCPASRP, the protein stability index is reported as 0.695 ± 0.029.
With AHADISPIHNLH the protein stability index was 0.627 ± 0.0066.
In the case of AHGASLCVPPSP, the protein stability index is reported as 0.512 ± 0.013.
With AHKSFRMVDGNR the protein stability index was 0.678 ± 0.066.
AHLLFGFGAPVS gave a protein stability index of 0.714 ± 0.15.
For AHPLSVSSFLSF, the protein stability index was 0.671 ± 0.0073.
In the case of AHPPPPQLPHPH, the protein stability index is reported as 0.7241 ± 0.0023.
AHWFMPVSCLLV gave a protein stability index of 0.838 ± 0.2.
AIDGVREDTSVE gave a protein stability index of 0.704 ± 0.18.
Sequence AIEKKVNQTPFK has a protein stability index of 0.659 ± 0.034.
With AIERCCTSRRRR the protein stability index was 0.701 ± 0.041.
AIGSVWACVCCS was tested, and the protein stability index was 0.504 ± 0.095.
Sequence AIKTVINYRDMM has a protein stability index of 0.608 ± 0.0024.
AIRTPPTRTPPA showed a protein stability index of 0.71 ± 0.049.
With AISSPVLSYATP the protein stability index was 0.657 ± 0.0035.
AKACHGGSTLPG gave a protein stability index of 0.609 ± 0.045.
With AKKKKKTKRRKK the protein stability index was 0.692 ± 0.07.
AKLQQEIVWALD gave a protein stability index of 0.779 ± 0.048.
AKVKIENKHRRK showed a protein stability index of 0.716 ± 0.015.
Sequence AKWAWPAIVGGC has a protein stability index of 0.722 ± 0.053.
Work on ALASPGLLVFTR yielded a protein stability index of 0.673 ± 0.026.
In the case of ALCGWYMGLFHL, the protein stability index is reported as 0.646 ± 0.0042.
For ALFEDWRIGVFS, the protein stability index was 0.71 ± 0.036.
ALFPPPSLRPLP gave a protein stability index of 0.724 ± 0.054.
ALFTVGNRPSSL was tested, and the protein stability index was 0.701 ± 0.021.
ALGVHGKFEWIK showed a protein stability index of 0.668 ± 0.066.
In the case of ALHPPSPPPPAP, the protein stability index is reported as 0.7313 ± 0.0027.
Work on ALIGMFATVALI yielded a protein stability index of 0.689 ± 0.099.
ALMHVTLAVGLL gave a protein stability index of 0.579 ± 0.0027.
In the case of ALPPPPPHPSPS, the protein stability index is reported as 0.717 ± 0.019.
In the case of ALPYPPRFPHCS, the protein stability index is reported as 0.645 ± 0.019.
In the case of ALRCRPVYHIDG, the protein stability index is reported as 0.658 ± 0.025.
Sequence ALRRWWCRGGRI has a protein stability index of 0.813 ± 0.024.
With ALRSGGAARVRL the protein stability index was 0.7776 ± 0.0071.
With ALSHGPAPRTRS the protein stability index was 0.649 ± 0.048.
Work on ALSLPPRLRTFY yielded a protein stability index of 0.663 ± 0.05.
In the case of ALSRSCPSGAFL, the protein stability index is reported as 0.727 ± 0.01.
Work on AMLLRCRQGDLI yielded a protein stability index of 0.675 ± 0.032.
For AMVATAYINPHE, the protein stability index was 0.712 ± 0.037.
ANELQEIYLGET gave a protein stability index of 0.6881 ± 0.006.
For ANGTLSGSPAPS, the protein stability index was 0.641 ± 0.021.
For ANKNDHNNQRQA, the protein stability index was 0.789 ± 0.09.
For ANVRTCCTSVPV, the protein stability index was 0.652 ± 0.037.
APAPELRRSPTP gave a protein stability index of 0.707 ± 0.01.
APAPPPGVPPSR showed a protein stability index of 0.702 ± 0.002.
APASPSFPLSAP showed a protein stability index of 0.673 ± 0.025.
Sequence APCLLNTLRPSP has a protein stability index of 0.686 ± 0.033.
Work on APEAHYRGCPPH yielded a protein stability index of 0.681 ± 0.018.
APFPPHPPPPPS showed a protein stability index of 0.707 ± 0.043.
Work on APFSALFPANSV yielded a protein stability index of 0.719 ± 0.15.
With APGPCSAPSCGA the protein stability index was 0.67 ± 0.013.
Work on APGPPPLPHPPT yielded a protein stability index of 0.717 ± 0.022.
APILFRICVRRL showed a protein stability index of 0.541 ± 0.046.
For APIRPPVPPASP, the protein stability index was 0.716 ± 0.035.
Work on APLFLPPPSLFF yielded a protein stability index of 0.6934 ± 0.0052.
Work on APLLTRRLPTAH yielded a protein stability index of 0.785 ± 0.025.
APLTYFKPPTPT showed a protein stability index of 0.666 ± 0.11.
For APPLQLSSPPPS, the protein stability index was 0.746 ± 0.051.
APPPAAPALSPR showed a protein stability index of 0.718 ± 0.096.
In the case of APPPAYCPPPPP, the protein stability index is reported as 0.713 ± 0.022.
For APPPPPALPEYQ, the protein stability index was 0.685 ± 0.047.
APPPPPDHPFPP was tested, and the protein stability index was 0.691 ± 0.08.
Work on APPPPPPPCAPS yielded a protein stability index of 0.657 ± 0.043.
Sequence APPPPPSPRRPL has a protein stability index of 0.708 ± 0.013.
APPPPPSRLFPP gave a protein stability index of 0.672 ± 0.028.
In the case of APPPPRPLLPSL, the protein stability index is reported as 0.723 ± 0.047.
Work on APPPRLAPTLSS yielded a protein stability index of 0.775 ± 0.014.
Work on APPPSPPPPPFP yielded a protein stability index of 0.67 ± 0.064.
For APPPVFLPPPPP, the protein stability index was 0.778 ± 0.039.
APPSPPPPTSHP showed a protein stability index of 0.777 ± 0.051.
With APPSPRPSRPSP the protein stability index was 0.64 ± 0.029.
Work on APRLFSPPEPPT yielded a protein stability index of 0.702 ± 0.038.
With APRLIALPPPTA the protein stability index was 0.711 ± 0.11.
APRPLPPPPSPC showed a protein stability index of 0.726 ± 0.027.
For APRTRPSPTLGT, the protein stability index was 0.724 ± 0.029.
For APSCRVPPLPPP, the protein stability index was 0.708 ± 0.046.
APSELSSRPFLL gave a protein stability index of 0.707 ± 0.026.
APSFSSPPVPLF gave a protein stability index of 0.698 ± 0.0085.
With APSRTPRQPPSH the protein stability index was 0.716 ± 0.067.
APTPPPRISAWL was tested, and the protein stability index was 0.687 ± 0.019.
APTVPVPPSPDA gave a protein stability index of 0.705 ± 0.077.
In the case of APVRSSIALKSD, the protein stability index is reported as 0.703 ± 0.035.
With APVWSINKTRVM the protein stability index was 0.671 ± 0.045.
AQSRTCPMPLPA was tested, and the protein stability index was 0.719 ± 0.025.
AQTHGGSSLPRP showed a protein stability index of 0.688 ± 0.028.
With ARAAHLASRGLP the protein stability index was 0.689 ± 0.037.
ARCLSFPSSSSA was tested, and the protein stability index was 0.654 ± 0.022.
ARESGFGGVLEE was tested, and the protein stability index was 0.674 ± 0.028.
ARFSPTLQLTPT gave a protein stability index of 0.844 ± 0.13.
Work on ARGCRRWRVLRR yielded a protein stability index of 0.77 ± 0.25.
ARGGIGTCSWGW showed a protein stability index of 0.743 ± 0.074.
ARGSTGLKLRWG gave a protein stability index of 0.706 ± 0.0096.
In the case of ARIALGLSALVL, the protein stability index is reported as 0.641 ± 0.05.
Work on ARIRDSPVIKTV yielded a protein stability index of 0.672 ± 0.019.
In the case of ARLAYESSPLPR, the protein stability index is reported as 0.7185 ± 0.0056.
For ARNDAGKRERVT, the protein stability index was 0.696 ± 0.016.
For ARNKKKDLREIK, the protein stability index was 0.761 ± 0.054.
For ARPCPRPHVPST, the protein stability index was 0.706 ± 0.043.
Sequence ARPFLWDFCLGR has a protein stability index of 0.681 ± 0.028.
With ARPGAWAPTEVD the protein stability index was 0.737 ± 0.0099.
With ARPLHSIGPAII the protein stability index was 0.658 ± 0.0089.
ARPPTPLRKGAP gave a protein stability index of 0.673 ± 0.017.
ARPSRPPPPSPP showed a protein stability index of 0.662 ± 0.018.
